Measurements taken from PMC4242096 (Nature structural & molecular biology, 2013).
Non-standard residues stand in square brackets, D forms with d. No end group written: not given here. pY = N[C@@H](Cc1ccc(OP(=O)(O)O)cc1)C(=O)O; pT = C[C@@H](OP(=O)(O)O)[C@H](N)C(=O)O; pS = N[C@@H](COP(=O)(O)O)C(=O)O

T1: S. cerevisiae Cks (Cks1) (Saccharomyces cerevisiae, UniProt P20486)
T1 sequence (P20486 1-150): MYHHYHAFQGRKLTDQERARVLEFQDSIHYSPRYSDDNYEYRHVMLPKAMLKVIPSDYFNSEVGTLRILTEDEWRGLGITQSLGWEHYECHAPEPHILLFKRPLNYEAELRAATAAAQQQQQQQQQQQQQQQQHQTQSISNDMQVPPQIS

T2: Cdc6^(1–48;T7A T39A S43A), only T23 phosphorylated (UniProt P09119 1-48, T7A | T39A | S43A, only T23 phosphorylated)
T2 chain (looked up): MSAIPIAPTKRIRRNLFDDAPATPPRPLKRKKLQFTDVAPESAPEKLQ

T3: Cdc6^(1–48;T23A T39A S43A), only T7 phosphorylated (UniProt P09119 1-48, T23A | T39A | S43A, only T7 phosphorylated)
T3 chain (looked up): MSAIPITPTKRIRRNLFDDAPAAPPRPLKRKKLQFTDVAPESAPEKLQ

B1: S. cerevisiae Cks (Cks1), wild type (natural protein, UniProt P20486 1-150, looked up)
chain: MYHHYHAFQGRKLTDQERARVLEFQDSIHYSPRYSDDNYEYRHVMLPKAMLKVIPSDYFNSEVGTLRILTEDEWRGLGITQSLGWEHYECHAPEPHILLFKRPLNYEAELRAATAAAQQQQQQQQQQQQQQQQHQTQSISNDMQVPPQIS

Key:
S. cerevisiae Cks (Cks1) = target: T1, S. cerevisiae Cks (Cks1); test: Isothermal titration calorimetry; format: binding; conditions: ITC; for Cks1 Kd (µM): phosphorylated Cdk substrate peptides, value ± error as printed
[1] = target: phosSic1 N-terminus N-terminus (Saccharomyces cerevisiae) (UniProt P38634); conditions: cited from earlier work
Sequence of phosSic1 N-terminus N-terminus (Saccharomyces cerevisiae) (P38634 1-100): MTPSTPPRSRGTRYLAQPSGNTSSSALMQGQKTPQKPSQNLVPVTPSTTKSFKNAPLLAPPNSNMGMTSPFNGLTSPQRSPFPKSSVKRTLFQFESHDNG

[2] = target: phosSic1ΔC ΔC (Saccharomyces cerevisiae) (UniProt P38634); conditions: cited from earlier work
Sequence of phosSic1ΔC ΔC (Saccharomyces cerevisiae) (P38634 1-215, stated change not applied): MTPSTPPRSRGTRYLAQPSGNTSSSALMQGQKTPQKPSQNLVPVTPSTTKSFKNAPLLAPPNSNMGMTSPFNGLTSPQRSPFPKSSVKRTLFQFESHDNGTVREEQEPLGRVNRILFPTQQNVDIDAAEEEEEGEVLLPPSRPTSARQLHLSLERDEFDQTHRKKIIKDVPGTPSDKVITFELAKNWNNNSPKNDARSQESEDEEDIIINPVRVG

phosphorylated Cdc6^1–48 = phosphorylated Cdc6^1–48 (UniProt P09119); test: ITC
[3] = target: T2, Cdc6^(1–48;T7A T39A S43A), only T23 …; test: ITC
[4] = target: T3, Cdc6^(1–48;T23A T39A S43A), only T7 …; test: ITC
[5] = target: B1; test: ITC

Row | Molecule | Kd [5] | other results
1 | SAIPI[pS]PTK [phosCdc6^2–10; pT7pS] | – | Cks1 Kd (µM) (S. cerevisiae Cks (Cks1)): no heat
2 | phosCdc6^1–48: purified N-terminal domain of Cdc6 (residues 1–48) phosphorylated with recombinant Cdk (MSAIPI[pT]PTKRIRRNLFDDAPA[pT]PPRPLKRKKLQFTDV[pT]PES[pS]PEKLQ) | – | stoichiometry parameter n (Cks1 molecules per Cdc6 molecule) (S. cerevisiae Cks (Cks1); data fit to a one site model): ≈ 2
3 | Cks1 (from UniProt P20486) | – | Kd [1]: 11 µM; Kd [2]: 20 µM
4 | S. cerevisiae Cks (Cks1), wild type (from UniProt P20486 1-150) (natural protein) | – | Kd (phosphorylated Cdc6^1–48): 9.8 µM; stoichiometry N (phosphorylated Cdc6^1–48): 2
5 | SAIPI[pY]PTK [phosCdc6^2–10; pT7pY] | – | Cks1 Kd (µM) (S. cerevisiae Cks (Cks1)): no heat
6 | B1 | – | stoichiometry N [3]: ~1; stoichiometry N [4]: ~1
7 | TPS[pT]PKRS [phosSic1^(2–9; P7K)] | 120 ± 20 µM | –
8 | TPS[pT]PPRS [phosSic1^2–9] | 95 ± 8 µM | –
9 | SAIPI[pT]P [phosCdc6^2–8] | 62 ± 2 µM | –
10 | AIPI[pT]PT [phosCdc6^3–9] | 61 ± 9 µM | –
11 | ESVT[pT]PIT [phosSwe1^117–124] | 170 ± 90 µM | –
12 | SAIPI[pT]PTK [phosCdc6^2–10] | 130 ± 60 µM | –
13 | RIPE[pT]PVK [phosSwe1^192–199] | 60 ± 10 µM | –
14 | TYS[pT]PPRS [phosSic1^(2–9; P3Y)] | 90 ± 50 µM | –
15 | EEIS[pT]PTR [phosSwe1^369–376] | 160 ± 70 µM | –
16 | AIPI[pT]P [phosCdc6^3–8] | 81 ± 6 µM | –
17 | TPS[pT]PTRS [phosSic1^(2–9; P7T)] | 70 ± 20 µM | –
